According to the supplement of paper PMC12042874:
± gives the uncertainty stated by the source.

Test: amyloid nucleation score (Sup35N fusion, yeast selection) (log enrichment); library NNK2; higher = more nucleation; inactive = no reads after selection
How it was run: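 Sup35N was fused to peptides of 20 random codons and expressed in psi-negative yeast, which were induced with 100 μM copper sulfate for 24 hours and then grown on medium lacking adenine and uracil for 7 days at 30°C. Plasmid inserts from input and output were sequenced on Illumina. The nucleation score is the DiMSum log enrichment of output over input reads, centred on the mode score of non-aggregating sequences. Sequences with under 100 input reads were left out, and random libraries had three technical output replicates.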

Substance	amyloid nucleation score
CSGHNRYYPRRGMDQHMLVF	0.266 ± 0.2
LDPKIRWLWK	0.204 ± 0.6
DTTALHRVTASTLGHRFSLG	0.58 ± 0.56
GGGYLCRVDYGSIDLTWLKS	-0.559 ± 0.76
ACIYRQRDS	-0.332 ± 0.56
RFCRVDKWEVRQGM	5.339 ± 0.051
CFQSRYLTRSGLKVWHTKGD	0.631 ± 0.37
FIFGCTCNILFICASSRFLQ	2.92 ± 0.11
GCYTET	0.729 ± 0.52
MVGNSNAPARVLCTVSKFGV	0.587 ± 0.33
SIFMDRCDWPSCSFGRIHEV	-0.521 ± 0.35
RWFDRV	0.664 ± 0.31
SYLSCGQKKHWCWPKVDSFR	-0.444 ± 0.42
GLRCRYPSRPVTCGLLWGCG	0.089 ± 0.37
FCLDLWCKGFLYYTQCVNGW	4.08 ± 0.063
FVNYSRGRFQVGLVMFRVRP	0.427 ± 0.74
DFCRQLWTKNKNVLRFICNS	-0.342 ± 1
VKFFSSVLSNDGFRSLGVCL	0.13 ± 1.1
SVDNGYVFSLVDPREYRFHL	-0.813 ± 0.76
IIADCTVARARHCLE	0.276 ± 1
RYYKCVLVWRHQGDSHIRAT	-0.412 ± 0.63
MKPSGFRGILGTELRMKGWT	0.74 ± 0.57
VDDFELMLYAMVVNGLELLD	-0.19 ± 1
WALLGFLDYKLFLTAEVFSA	-0.498 ± 1.1
ACMIEFRILRYRREMMSICS	6.489 ± 0.039

Substance	amyloid nucleation score
LSCLK	-0.344 ± 0.28
WITVVRLIYLAFFQTGST	-0.867 ± 0.63
DMQGYFCSLTLMFMFRPRIM	inactive
SMIIARILHITCFYRAHRRV	-0.721 ± 0.64
SRSFASPRYELMLATRTHEK	0.966 ± 0.57
IFHYAFC	10.09 ± 0.061
SNQCTWNDYSG	-0.565 ± 0.64
FLFSFKDPKHMDITCKAVYA	-0.433 ± 0.78
VCTLRVSDNNLEKKSVLYMR	3.97 ± 0.047
CTNMREFKGSLKAHIVLVVV	-0.479 ± 0.32
FCTKSTGNMCFTIMKLRG	0.097 ± 0.79
TTGHQLNDCYLKGCFSEWIL	-0.073 ± 1
LVSRSYD	-0.341 ± 0.79
MKMEY	0.31 ± 0.42
YSDSSSREMEQSGL	-0.199 ± 0.63
SRWIGSECNPNCNLSVSYIL	4.87 ± 0.057
IGAQPRDGYN	-0.223 ± 0.49
YPVIPGISRLLNTQRIVFLG	-0.226 ± 0.21
ALCYWRNSPSVGRRQWRRQC	6.654 ± 0.057
VKWTVHYNAVAKRIRLMIVY	0.437 ± 0.8
SRCMILFFRFIVSRYEVKSL	1.77 ± 0.12
CFNGLDLLILSTKMVSLLWY	-0.492 ± 1.1
MFIWPCYFHNIRVGQLFGFG	0.091 ± 0.63
VHTMY	-0.299 ± 1.1
LYWFMD	-1.16 ± 1.1

Substance	amyloid nucleation score
VYMKFMGMMQHFIKLKSRDL	inactive
FYRRNNSPYSFAVRCGVWFL	inactive
NRRNLSVGYSKVHS	0.443 ± 0.3
FSTWSTLDSVACW	inactive
IYNNLTCWSDASHGVCFGMD	4.67 ± 0.058
SNNNAIVNRSRIIRHFMNYC	-0.604 ± 0.56
FFIIMRYRLRDFTFVYSSPV	-0.627 ± 0.31
CTPDLLSVNFDVVVLQW	-0.58 ± 0.55
FTFLRRLMFTGFRLAIQNPS	inactive
ELFYDLSQTCQMCF	-0.759 ± 0.64
KICYWLRRASVYMLVVLGRP	-0.343 ± 0.49
YVIVVGWPR	9.408 ± 0.073
MTTALDGSLYVWCQCAVDVI	0.379 ± 0.54
SYPAKDRNLYDCYLCPVSYL	-1.16 ± 0.61
GYGWKLQMTGGESCVGSHLR	0.388 ± 0.66
DCHRNGSFRGKDGDVLYRSS	-0.397 ± 0.78
FVSRIGIFLS	-1.28 ± 0.78
IMGKI	0.163 ± 0.79
LSKRIDSRDMLGSGNHRCLL	-0.655 ± 0.64
SFALGLQRNVNCKDD	-0.06 ± 0.54
LSLNG	-0.955 ± 0.39
LSSCLHEIRDSVVVRVVVVY	-0.684 ± 0.5
ELDWKASTIGKMNHIRLERR	0.145 ± 0.23
VMSFTASA	0.607 ± 0.51
LCFYK	0.388 ± 0.32

Substance	amyloid nucleation score
SDLRRCM	0.277 ± 0.21
KGDRKKDCMPDLVYRKLSGV	0.798 ± 0.67
QCQRLSWRCMWCGMSLYQYD	3.98 ± 0.048
CRRFSEYNVLCSDLNPIMVL	0.404 ± 0.66
IISFLLFGEGGFFLVLY	inactive
SYLFVSVDLHFIEVFYR	1.44 ± 0.12
NTWEWLLPEMSNLLSWFSEW	0.014 ± 0.27
SDDWIDYRCNPGRGSKEAMA	4.6 ± 0.098
GNCLEYIVRNTIANKRSRML	-0.114 ± 1
HREWG	0.668 ± 0.46
NMKGTPVYLSFYDCSRPVGW	4.04 ± 0.11
FLSDNVISAY	-0.543 ± 0.38
EYSFIHLEIKNTVLKRVLTP	1.66 ± 0.32
ANERCGTLTMRSEAYHVRTW	0.808 ± 0.28
ECRGCAWA	3.95 ± 0.046
CISMDLIVLNSFMGKPLPPP	5.39 ± 0.057
SNGYGRLAQLVGGWRDTKGG	0.398 ± 0.29
WYGCMVIAQWGFYYENNTSW	inactive
VDVVFTSSSTSLCSLSWSGV	4.79 ± 0.099
TLFSSRRYSVGERSQVTCLI	-0.492 ± 0.55
VLQRCRTAVKPYQHNNCLIM	2.26 ± 0.11
PKKSVGKLNIILEVLPSTAV	-0.666 ± 0.53
CLYARHFVNCNGYATGTLMD	-0.163 ± 0.61
LIVCLFISFFAYELCYESAF	0.403 ± 0.62
YFSRWLFFYECKGDNLLRRE	-0.512 ± 0.76

Substance	amyloid nucleation score
HSSISVCVYSRLPCH	-0.447 ± 0.36
VHWSWIAVAGHKDRAPGVRR	1.21 ± 0.3
YPIIVFAVLCFEWETYWCSL	0.015 ± 0.76
TLNSRWVNNSPVEM	-0.12 ± 1
KLACVEGTKWAASGIAPNV	0.946 ± 0.2
MSLLYGS	0.523 ± 0.64
LSVSPGSRDLREPEDSFMWS	-0.05 ± 0.3
DGEYPHQYSLEVLLLRLRH	5.071 ± 0.049
FMVDASLNQRMGINQFVCS	-1.34 ± 0.76
LSGRCFFNVLLINCKRTERI	2.1 ± 0.19
NHRQDKLQNHVSGLPSIGSL	0.059 ± 0.36
RCSVGVAWEVGKYVIKIRGF	-1.08 ± 0.62
LAAGWGVLHELL	inactive
RDNYEGLY	-1.05 ± 0.74
NTAFADVDAF	-0.645 ± 0.55
NMCVK	inactive
VANDLQPWLRAVHSCFWYSS	0.896 ± 0.17
WPWVSGPVKQSRCFRIDLSM	0.459 ± 0.57
SYVGMFRTLDVKLRLNKCGY	-0.038 ± 1.1
WLASPGDSSFMCLNVVVAAV	0.723 ± 0.5
SYCKPTVIACVMLSCQQ	8.866 ± 0.067
YLRYLWSRQPCSAGSQVACR	-0.145 ± 1.1
QKYLYQGCHLI	-1.24 ± 0.32
ARKKALGGNNLEVVLFLFSC	4.93 ± 0.098
EVRFSILFGSVIKRTV	1.09 ± 0.21

Substance	amyloid nucleation score
FSDNKLFA	0.715 ± 0.81
IIGFLFMDFLLSCRFQFCT	-1.32 ± 0.45
IFYYIDCCHITARYFQREGM	7.71 ± 0.081
DTLWEGSLLNVYFVDVIRST	0.06 ± 0.55
SGNKAMWKIIPLT	-0.262 ± 0.27
SNLFCLNTSLVQAVMMACPI	0.113 ± 1.1
ILHPGSNLPRCRDMCILKGW	-0.226 ± 0.54
FWVKKLYLGIGSHVWNMGFN	inactive
CGVMKNYDESKTYGLGLG	3.51 ± 0.1
IGTYWYVKLWRYSYVYPYLD	0.665 ± 0.57
WTSPGSLPKRALCGRVERYA	-0.53 ± 0.29
LWHFVLWYMWLLIGDVVGVC	-0.459 ± 1.1
VVRVCRQGCLSNLSWCGWGE	-0.1 ± 1
GVYIRVVSHEWVLFW	inactive
YWELQSHMGRFNSSCHLRWV	-1.7 ± 0.76
QDMLWVPCNSGYRTQ	0.627 ± 0.47
RHRSNCMRRSTVSVGNVRES	0.427 ± 0.23
WRGGFWPCSVVLI	0.354 ± 0.65
RYLVLVLLGHINCARYYTLN	-0.114 ± 1.1
VIRRGMFIQPAFAKMLSAWF	-0.231 ± 1
RAQYPFDSLSRGSGPVMWLS	1 ± 0.57
FLMSVTYCKGFGRTEECACC	-0.28 ± 0.33
SVFFGFWDTHAAAYMHGVFM	inactive
TFLSGLCIAACSIMGFNQSS	-1.6 ± 0.78
YTWSSYD	-1.14 ± 0.36

Substance	amyloid nucleation score
VNLGSGAVEPTTLRKFGLTR	4.28 ± 0.06
FIKDKKSPSCCAN	-0.866 ± 0.4
GLRFVYLIYTGRS	-0.497 ± 0.64
VSLLCIFVAYGNWVMNGDDP	-0.136 ± 0.62
VLGLSR	0.584 ± 0.51
FGILGCMYVNPNMNMIYWLW	1.56 ± 0.24
WSGVSGNLT	0.145 ± 0.4
LFEASPDAVTVSCDALGLGY	0.324 ± 0.3
YSSKFSYGMMCTRWDIVQYK	-0.451 ± 0.76
RNFPMVFCAMV	inactive
STSECLK	inactive
GLGALVGVTLYRRTQQNMWG	6.313 ± 0.056
YRSFSLCMCFYLYRSDDTLC	-1.69 ± 1.1
YIVCKDSTSQVYYFSSDNFY	4.09 ± 0.095
GLGLSFDVSVVPQDGYGIRL	-0.492 ± 1.1
RNFCGTRARSISYWAESERW	-0.089 ± 1.1
HTWHLDRSLNLSMSLEPMLL	0.233 ± 0.4
LLGPYKAHTQKYCWSSYV	-0.287 ± 0.56
SRCGIWPWLRHDKVD	0.853 ± 0.18
FYGAKMSIHSYC	inactive
